Where two headings read alike, the source gives them in different places.
Columns and labels:
[1] = target: Fc-tagged human CD40 (h-CD40-Fc) recombinant protein (human) (UniProt P25942); test: hCD40/hCD40L blocking ELISA, competitor CD40L-his
[2] = target: His-tagged human CD40 (h-CD40-his) recombinant protein (human) (UniProt P25942); test: ELISA, human CD40-his coated
[3] = target: His-tagged human CD40 (h-CD40-his) recombinant protein (human) (UniProt P25942); test: Biacore SPR, antibody captured by anti-human antibody, CD40 antigen as analyte, 1:1 model
[4] = target: human CD40 on HEK-Blue CD40L cells (HEK293 cells stably transfected with human CD40 gene) (human) (UniProt P25942); test: HEK293-CD40 cell-binding (so in the source)
[5] = target: His-tagged rhesus monkey CD40 (rhesus-CD40-his) recombinant protein (rhesus monkey) (UniProt F6SNI1); test: ELISA, Rhesus CD40-his coated
[6] = target: His-tagged human CD40 (h-CD40-his) recombinant protein (human) (UniProt P25942); test: ELISA, human CD40-his coated; remark: listed apart in the source
[7] = target: human CD40 on HEK-Blue CD40L cells (HEK293 cells stably transfected with human CD40 gene) (human) (UniProt P25942); test: HEK293-CD40 cell-binding (so in the source); remark: listed apart in the source
[8] = target: Fc-tagged human CD40 (h-CD40-Fc) recombinant protein (human) (UniProt P25942); test: hCD40/hCD40L blocking ELISA, competitor CD40L-his; remark: listed apart in the source

Pfizer control (hIgG4) (antibody), sequence (VH): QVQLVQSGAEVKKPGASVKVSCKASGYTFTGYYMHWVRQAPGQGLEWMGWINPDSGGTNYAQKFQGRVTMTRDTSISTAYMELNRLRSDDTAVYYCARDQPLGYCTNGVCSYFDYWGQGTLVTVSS
Pfizer control (hIgG4) (antibody), sequence (VL): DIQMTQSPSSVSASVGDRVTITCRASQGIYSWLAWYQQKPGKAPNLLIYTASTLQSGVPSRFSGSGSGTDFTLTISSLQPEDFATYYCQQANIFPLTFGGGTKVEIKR
His-tagged human CD40 (h-CD40-his) recombinant protein (human), sequence (P25942 21-193 limits assumed): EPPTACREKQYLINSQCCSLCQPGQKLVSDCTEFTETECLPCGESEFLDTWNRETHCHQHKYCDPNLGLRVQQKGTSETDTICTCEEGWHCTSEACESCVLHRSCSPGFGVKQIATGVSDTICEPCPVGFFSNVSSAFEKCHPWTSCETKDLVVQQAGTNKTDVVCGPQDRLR
Fc-tagged human CD40 (h-CD40-Fc) recombinant protein (human), sequence (P25942 21-193 limits assumed): as above
human CD40 on HEK-Blue CD40L cells (HEK293 cells stably transfected with human CD40 gene) (human), sequence (P25942 21-277): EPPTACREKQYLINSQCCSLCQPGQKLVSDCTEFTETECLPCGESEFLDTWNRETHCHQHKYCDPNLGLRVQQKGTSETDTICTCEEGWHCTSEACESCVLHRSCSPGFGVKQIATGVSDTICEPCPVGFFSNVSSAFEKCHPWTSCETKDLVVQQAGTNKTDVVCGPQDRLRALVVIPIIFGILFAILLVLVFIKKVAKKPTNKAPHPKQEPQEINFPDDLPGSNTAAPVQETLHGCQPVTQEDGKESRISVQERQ

IC50 [1] | EC50 [2] | Kd [3] | EC50 [4] | EC50 [5] | EC50 [6] | EC50 [7] | IC50 [8] | Substance
723 ng/mL | 3.29 ng/mL | 166 nM | 1360 ng/mL | 1.24 ng/mL | 1.29 ng/mL | 396 ng/mL | 647 ng/mL | Alligator control (hIgG1) (antibody)
– | 5.63 ng/mL | 20.4 nM | – | 3.56 ng/mL | 3.98 ng/mL | – | – | Pfizer control (hIgG4) (antibody)
